Details: Homo sapiens, Thermal, DSC, Sodium phosphate 50 mM, reversible: no, whole UniProt chain shown

B1: Annexin A1 wild type, P04083 (protein)
chain: MAMVSEFLKQAWFIENEEQEYVQTVKSSKGGPGSAVSPYPTFNPSSDVAALHKAIMVKGVDEATIIDILTKRNNAQRQQIKAAYLQETGKPLDETLKKALTGHLEEVVLALLKTPAQFDADELRAAMKGLGTDEDTLIEILASRTNKEIRDINRVYREELKRDLAKDITSDTSGDFRNALLSLAKGDRSEDFGVNEDLADSDARALYEAGERRKGTDVNVFNTILTTRSYPQLRRVFQKYTKYSKHDMNKVLDLELKGDIEKCLTAIVKCATSKPAFFAEKLHQAMKGVGTRHKALIRIMVSRSEIDMNDIKAFYQKMYGISLCQAILDETKGDYEKILVALCGGN
- Tm (pH 3.2): 41.1 °C
- unfolding enthalpy (calorimetric) (pH 3.2): 102 kcal/mol
- unfolding enthalpy (van 't Hoff) (pH 3.2): 101 kcal/mol
- Tm (pH 3.4): 48.5 °C
- unfolding enthalpy (calorimetric) (pH 3.4): 139 kcal/mol
- unfolding enthalpy (van 't Hoff) (pH 3.4): 119 kcal/mol
- Tm (pH 3.8): 56.4 °C
- unfolding enthalpy (calorimetric) (pH 3.8): 152 kcal/mol
- unfolding enthalpy (van 't Hoff) (pH 3.8): 142 kcal/mol
- Tm (pH 4.5): 62.3 °C
- unfolding enthalpy (calorimetric) (pH 4.5): 192 kcal/mol
- unfolding enthalpy (van 't Hoff) (pH 4.5): 200 kcal/mol
- Tm (pH 5): 62.7 °C
- unfolding enthalpy (calorimetric) (pH 5): 203 kcal/mol
- unfolding enthalpy (van 't Hoff) (pH 5): 206 kcal/mol
- Tm (pH 6): 61.8 °C
- unfolding enthalpy (calorimetric) (pH 6): 197 kcal/mol
- unfolding enthalpy (van 't Hoff) (pH 6): 224 kcal/mol
- Tm (pH 7): 59.9 °C
- unfolding enthalpy (calorimetric) (pH 7): 200 kcal/mol
- unfolding enthalpy (van 't Hoff) (pH 7): 220 kcal/mol
- Tm (pH 8): 58.5 °C
- unfolding enthalpy (calorimetric) (pH 8): 197 kcal/mol
- unfolding enthalpy (van 't Hoff) (pH 8): 215 kcal/mol

From FireProtDB (doi:10.1006/jmbi.1999.2732)
